Assay results taken from article doi:10.1101/2021.07.08.451689 (bioRxiv, 2021).

B1: MLKL N-terminal domain of 154 amino acid residues with mutation D144K (domain or fragment, human, UniProt Q8NB16 1-154, looked up)
chain: MENLKHIITLGQVIHKRCEEMKYCKKQCRRLGHRVLGLIKPLEMLQDQGKRSVPSEKLTTAMNRFKAALEEANGEIEKFSNRSNICRFLTASQDKILFKDVNRKLSDVWKELSLLLQVEQRMPVSPISQGASWAQEDQQDADEKRRAFQMLRRD
B2: MLKL N-terminal domain of 139 amino acid residues (domain or fragment, human, UniProt Q8NB16 1-139, looked up)
chain: MENLKHIITLGQVIHKRCEEMKYCKKQCRRLGHRVLGLIKPLEMLQDQGKRSVPSEKLTTAMNRFKAALEEANGEIEKFSNRSNICRFLTASQDKILFKDVNRKLSDVWKELSLLLQVEQRMPVSPISQGASWAQEDQQ

Target: the molecule itself
Experiment: SEC

| Protein | binding result |
| --- | --- |
| B1 | binds |
| B2 | binds |
